Experimental data: US20160075790A1 (Bristol-Myers Squibb, published 2016)
Several values for one entry are separate records, joined by “and”; a condition that tells them apart may be missing. Identical values can stand only once.

T1: human isoleucine zipper-CD40L (IZ-hCD40L) (human, UniProt P29965 113-261)
T1 sequence: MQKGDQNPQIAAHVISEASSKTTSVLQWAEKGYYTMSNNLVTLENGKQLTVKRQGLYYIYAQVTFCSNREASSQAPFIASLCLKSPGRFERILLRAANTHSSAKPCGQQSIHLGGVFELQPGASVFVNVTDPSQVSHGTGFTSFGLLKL

T2: human CD40L, membrane-bound on cells (human, UniProt P29965 1-261)
T2 sequence: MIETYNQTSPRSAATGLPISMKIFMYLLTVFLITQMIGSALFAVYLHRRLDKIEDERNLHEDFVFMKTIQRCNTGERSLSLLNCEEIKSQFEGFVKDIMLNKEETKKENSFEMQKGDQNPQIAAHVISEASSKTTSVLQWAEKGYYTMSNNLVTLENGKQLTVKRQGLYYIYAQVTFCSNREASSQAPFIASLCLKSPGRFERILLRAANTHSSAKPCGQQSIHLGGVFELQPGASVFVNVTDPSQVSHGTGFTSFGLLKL


Assays:
[1] = target: T1, human isoleucine zipper-CD40L …; experiment: cell-based or functional assay
[2] = target: T2, human CD40L, membrane-bound on cells; experiment: cell-based or functional assay

Row | Binder | hIZCD40L-driven Human B Cell Proliferation EC50 [1] | CHO-hCD40L-driven Human B Cell Proliferation EC50 [2] [nM] | CHO-hCD40L-driven DC Activation IL-12 EC50 [2] [nM] | T-B cell MLR EC50 [2] [nM]
1 | BMS2h-437-4 (other) VL: DIQMTQSPSSLSASVGDRVTITCRASTPIGTMLDWYQQKPGKAPKLLIGHSSWLQSGVPSRFSGCGSGTDFTLTISSLQPEDFATYYCGQHVRPPATFGQGTKVEIKR | 203 nM | > 7000 | 1330 | 
2 | BMS2h-492-3 (other) VL: DIQMTQSPSSLSATVGDRVTITCRASQAIETNLEWYQQKPGKAPKLLIYDASMLQSGVPSRFSGSGSGTDFTLTISSLQPEDFATYYCQQYDAYPPTFGQGTKVEIKR | 1100 nM | > 7000 |  | 
3 | BMS2h-492-4 (other) VL: DIQMTQSPSSLSASVGDRVTITCRASQAIEHNLEWYQQKPGKAPKLLIYDASMLQSGVPSRFSGRGSGTDFTLTISSLQPEDFATYYCQQYDAYPPTFGQGTKVEIKR | 1700 nM | > 7000 |  | 
4 | BMS2h-116-1319 (other) VL: DIQMTQSPSSLSASVGDRVTITCRASQPIGPDLLWYQQKPGKAPKLLIYQTSIMRSGVPSRFSGSGSETDFTLTISNLQPEDFATYYCQQYWTFPVTFGQGTKVEIKR | 180 nM | > 7000 |  | 
5 | BMS2h-116-1320 (other) VL: DIQMTQSPSSLSAYVGDRVTITCRASQPIGPDLLWYQQKPGKAPKLLIYQTSILRSGVPSRFSGSGSETDFTLTISNLQPEDFAKYYCQQYWAFPVTFGQGTKVVIKR | 20 nM | 138 | 32 | 191

Further lines, results first:

Row | hIZCD40L-driven Human B Cell Proliferation EC50 [1] | CHO-hCD40L-driven Human B Cell Proliferation EC50 [2] [nM] | CHO-hCD40L-driven DC Activation IL-12 EC50 [2] [nM] | T-B cell MLR EC50 [2] [nM] | Binder
6 | 4200 nM | > 7000 |  |  | BMS2h-503 (other) VL: DIQMTQSPSSLSASVGDRVTITCRASHHIQRYLSWYQQKPGKAPKLLILWGSQLQSGVPSRFSGSGSGTDFTLTISSLQPEDFATYYCGQWWAPPPTFGQGTKVEIKR
7 | 24 nM | 2300 | 756 |  | BMS2h-503-1 (other) VL: DIQMTQSPSSLSASVGDRVTITCRASHHIQRYLSWYQQKPGKAPKLLILWGSQLQSGVPSRFSGSGSGTDFTLTISSLQPEDFATYYCGQWWAPPQTFGQGTKVEIKR
8 | 44 nM | 3000 | 1560 |  | BMS2h-503-2 (other) VL: DIQMTQSPSSLSASVGDRVTITCRASHDIQRYLSWYQQKPGKAPKLLILWGSQLQSGVPSRFSGSGSGTDFTLTISSLQPEDFATYYCGQWWAPPQTFGQGTKVEIKR
9 | 254 nM and 354 nM | > 700 | 387 |  | BMS2h-572-604 (other) VH: EVQLLESGGGLVQPGGSLRLSCAASGFTFKWQLMGWVRQAPGKGLEWVSGIEGPGDVTYYADSVKGRFTISRDNSKNTLYLQMNSLRAEDTAVYYCVKVGKESNSDYRGQGTLVTVSS
10 | 590 nM | > 7000 |  |  | BMS2h-494-4 (other) VL: EIQMTQSPSSLSASVGDRVTMTCRASQSIDKDLEWYQQKPGKAPRLLIYSSSWLQRGVPSRFSGSGSGTDFTLTISSLRPEDFATYYCQQYFQYPPTLGQGTKVEIKR
11 | 2000 nM | > 7000 |  |  | BMS2h-494-6 (other) VL: DIQMTQSPPSLSASVGDRVTITCRASQSIDKDLEWYQQKPGKAPRLLIYSSSWLQRGVPSRFSGSGSGTDFTLTISSLQPEDFATYHCQQYFQYPPTFGQGTKVEIKR
